Assay results: IntAct's records for PubMed 21224850

B1: Cell division protein SepF (Bacillus subtilis), O31728 (parent)
chain: MSMKNKLKNFFSMEDEEYEYEYIETERESHEEHEQKEKPAYNGNKPAGKQNVVSLQSVQKSSKVVLSEPRVYAEAQEIADHLKNRRAVVVNLQRIQHDQAKRIVDFLSGTVYAIGGDIQRIGSDIFLCTPDNVDVSGTISELISEDEHQRW
partner: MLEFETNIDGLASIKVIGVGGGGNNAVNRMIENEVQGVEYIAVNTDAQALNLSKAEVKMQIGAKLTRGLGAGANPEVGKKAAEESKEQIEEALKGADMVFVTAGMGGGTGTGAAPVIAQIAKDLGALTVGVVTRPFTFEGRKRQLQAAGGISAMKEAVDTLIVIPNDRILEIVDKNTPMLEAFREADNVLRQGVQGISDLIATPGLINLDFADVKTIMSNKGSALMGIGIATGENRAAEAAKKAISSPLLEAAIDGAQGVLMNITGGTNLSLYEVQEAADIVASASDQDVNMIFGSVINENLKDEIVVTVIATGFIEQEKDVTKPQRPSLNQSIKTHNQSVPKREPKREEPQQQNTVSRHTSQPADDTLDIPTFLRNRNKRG

Variants of: B1
Conditions: with ftsz_bacsu ftsZ

Variant | effect of a mutation on the interaction
MSMKNKLKNFFSMEDEEYEYEYIETERESHEEHEQKEKPAYNGNKPAGKQNVVSLQSVQKSSKVVLSEPRVYAEAQEIADHLKNRRAVVVNLQRIQHDQAKRIVDFLSGTVYAIGGDIQRIGSDISLCTPDNVDVSGTISELISEDEHQRW [F126S] | disrupting interaction

Variants of: B1
Conditions: with ftsz_bacsu ftsZ
Remark: another data set of the same source

Variant | effect of a mutation on the interaction
MSMKNKLKNFFSMEDEEYEYEYIETERESHEEHEQKEKPAYNGNKPAGKQNVVSLQSVQKSSKVVLSEPRVYAEAQEIADHLKNRRAVVVNLQRIQHDQVKRIVDFLSGTVYAIGGDIQRIGSDIFLCTPDNVDVSGTISELISEDEHQRW [A100V] | disrupting interaction
